# Measured values from US20240279356A1 (Xencor, published 2024).
# Where a chain is given by its changes, count along the chain named. Numbers in names are those of the source.
# B1: XENP31701 (bispecific antibody)
# heavy: QVQLVQSGAEVKKPGASVKVSCKASGYTFTSYWMHWVRQAPGQGLEWMGMIHPNSDNTIYYEKFQGRVTMTVDKSISTAYMELSRLRSDDTAVYYCAIIITPVVPKFDYWGQGTLVTVSSASTKGPSVFPLAPSSKSTSGGTAALGCLVKDYFPEPVTVSWNSGALTSGVHTFPAVLQSSGLYSLSSVVTVPSSSLGTQTYICNVNHKPSDTKVDKKVEPKSCDKTHTCPPCPAPPVAGPSVFLFPPKPKDTLMISRTPEVTCVVVDVKHEDPEVKFNWYVDGVEVHNAKTKPREEEYNSTYRVVSVLTVLHQDWLNGKEYKCKVSNKALPAPIEKTISKAKGQPREPQVYTLPPSREEMTKNQVSLTCDVSGFYPSDIAVEWESDGQPENNYKTTPPVLDSDGSFFLYSKLTVDKSRWEQGDVFSCSVMHEALHNHYTQKSLSLSPGK
# scFv-Fc: not shown
# light: DIVMTQSPDSLAVSLGERATINCKASHDVGTSVAWYQQKPGQSPKLLIYWASTRHTGVPDRFTGSGSGTDFTLTISSLQAEDVAVYFCQQYSSYPLTFGAGTKLEIKRTVAAPSVFIFPPSDEQLKSGTASVVCLLNNFYPREAKVQWKVDNALQSGNSQESVTEQDSKDSTYSLSSTLTLSKADYEKHKVYACEVTHQGLSSPVTKSFNRGEC
# notes: VH WT, VL WT; also called MESO-C H1_L1; copies: 1 + 1 + 1
# B2: XENP32550 (bispecific antibody)
# Fab-Fc heavy chain (anti-MSLN VH): B1 heavy with S31G
# scFv-Fc heavy chain (anti-CD3 H1.30_L1.47): not shown
# light chain (anti-MSLN VL): B1 light
# notes: 1+1 Fab-scFv-Fc bsAb; VH S31G, VL WT (Kabat); also called MESO-C H1.1_L1
# B3: XENP32551 (bispecific antibody)
# Fab-Fc heavy chain (anti-MSLN VH): B1 heavy with W33Y
# scFv-Fc heavy chain (anti-CD3 H1.30_L1.47): not shown
# light chain (anti-MSLN VL): B1 light
# notes: 1+1 Fab-scFv-Fc bsAb; VH W32Y, VL WT (Kabat); also called MESO-C H1.2_L1
# B4: XENP32553 (bispecific antibody)
# Fab-Fc heavy chain (anti-MSLN VH): B1 heavy with H52N
# scFv-Fc heavy chain (anti-CD3 H1.30_L1.47): not shown
# light chain (anti-MSLN VL): B1 light
# notes: 1+1 Fab-scFv-Fc bsAb; VH H52N, VL WT (Kabat); also called MESO-C H1.4_L1
# B5: XENP32554 (bispecific antibody)
# Fab-Fc heavy chain (anti-MSLN VH): B1 heavy with N54Q
# scFv-Fc heavy chain (anti-CD3 H1.30_L1.47): not shown
# light chain (anti-MSLN VL): B1 light
# notes: 1+1 Fab-scFv-Fc bsAb; VH N53Q, VL WT (Kabat); also called MESO-C H1.5_L1
# B6: XENP32555 (bispecific antibody)
# Fab-Fc heavy chain (anti-MSLN VH): B1 heavy with D56G
# scFv-Fc heavy chain (anti-CD3 H1.30_L1.47): not shown
# light chain (anti-MSLN VL): B1 light
# notes: 1+1 Fab-scFv-Fc bsAb; VH D55G, VL WT (Kabat); also called MESO-C H1.6_L1
# B7: XENP32556 (bispecific antibody)
# Fab-Fc heavy chain (anti-MSLN VH): B1 heavy with I98R
# scFv-Fc heavy chain (anti-CD3 H1.30_L1.47): not shown
# light chain (anti-MSLN VL): B1 light
# notes: 1+1 Fab-scFv-Fc bsAb; VH I94R, VL WT (Kabat); also called MESO-C H1.7_L1
# B8: XENP32557 (bispecific antibody)
# Fab-Fc heavy chain (anti-MSLN VH): B1 heavy with T101S
# scFv-Fc heavy chain (anti-CD3 H1.30_L1.47): not shown
# light chain (anti-MSLN VL): B1 light
# notes: 1+1 Fab-scFv-Fc bsAb; VH T97S, VL WT (Kabat); also called MESO-C H1.8_L1
# B9: XENP32558 (bispecific antibody)
# Fab-Fc heavy chain (anti-MSLN VH): B1 heavy with K106R
# scFv-Fc heavy chain (anti-CD3 H1.30_L1.47): not shown
# light chain (anti-MSLN VL): B1 light
# notes: 1+1 Fab-scFv-Fc bsAb; VH K100bR, VL WT (Kabat); also called MESO-C H1.9_L1
# B10: XENP32559 (bispecific antibody)
# Fab-Fc heavy chain (anti-MSLN VH): B1 heavy
# scFv-Fc heavy chain (anti-CD3 H1.30_L1.47): not shown
# light chain (anti-MSLN VL): B1 light with A25S
# notes: 1+1 Fab-scFv-Fc bsAb; VH WT, VL A25S (Kabat); also called MESO-C H1_L1.1
# B11: XENP32560 (bispecific antibody)
# Fab-Fc heavy chain (anti-MSLN VH): B1 heavy
# scFv-Fc heavy chain (anti-CD3 H1.30_L1.47): not shown
# light chain (anti-MSLN VL): B1 light with H27Q
# notes: 1+1 Fab-scFv-Fc bsAb; VH WT, VL H27Q (Kabat); also called MESO-C H1_L1.2
# B12: XENP32564 (bispecific antibody)
# Fab-Fc heavy chain (anti-MSLN VH): B1 heavy
# scFv-Fc heavy chain (anti-CD3 H1.30_L1.47): not shown
# light chain (anti-MSLN VL): B1 light with V33L
# notes: 1+1 Fab-scFv-Fc bsAb; VH WT, VL V33L (Kabat); also called MESO-C H1_L1.6
# B13: XENP32565 (bispecific antibody)
# Fab-Fc heavy chain (anti-MSLN VH): B1 heavy
# scFv-Fc heavy chain (anti-CD3 H1.30_L1.47): not shown
# light chain (anti-MSLN VL): B1 light with H55E
# notes: 1+1 Fab-scFv-Fc bsAb; VH WT, VL H55E (Kabat); also called MESO-C H1_L1.7
# B14: XENP32566 (bispecific antibody)
# Fab-Fc heavy chain (anti-MSLN VH): B1 heavy
# scFv-Fc heavy chain (anti-CD3 H1.30_L1.47): not shown
# light chain (anti-MSLN VL): B1 light with T56S
# notes: 1+1 Fab-scFv-Fc bsAb; VH WT, VL T56S (Kabat); also called MESO-C H1_L1.8
# B15: XENP32568 (bispecific antibody)
# Fab-Fc heavy chain (anti-MSLN VH): B1 heavy
# scFv-Fc heavy chain (anti-CD3 H1.30_L1.47): not shown
# light chain (anti-MSLN VL): B1 light with Y94T
# notes: 1+1 Fab-scFv-Fc bsAb; VH WT, VL Y94T (Kabat); also called MESO-C H1_L1.10
# B16: XENP32569 (bispecific antibody)
# heavy: B1 heavy with N54Q
# scFv-Fc: not shown
# light: B1 light with D28S
# notes: VH N53Q, VL D28S (Kabat); also called MESO-C H1.5_L1.3; copies: 1 + 1 + 1
# B17: XENP32570 (bispecific antibody)
# heavy: B1 heavy with D56G
# scFv-Fc: not shown
# light: B1 light with D28S
# notes: VH D55G, VL D28S (Kabat); also called MESO-C H1.6_L1.3; copies: 1 + 1 + 1
# B18: XENP32938 (bispecific antibody)
# heavy: B1 heavy with E62Y
# scFv-Fc: not shown
# light: B1 light with S92Y
# notes: VH E61Y, VL S92Y as printed; also called MESO-C H1.13_L1.9; copies: 1 + 1 + 1
# B19: XENP32939 (bispecific antibody)
# heavy: B1 heavy with M50W
# scFv-Fc: not shown
# light: B1 light with T31Q
# notes: VH M50W, VL T37Q as printed; also called MESO-C H1.3_L1.13; copies: 1 + 1 + 1
# B20: XENP32940 (bispecific antibody)
# heavy: B1 heavy with M50W
# scFv-Fc: not shown
# light: B1 light with Y94F
# notes: VH M50W, VL Y100F as printed; also called MESO-C H1.3_L1.14; copies: 1 + 1 + 1
# B21: XENP32943 (bispecific antibody)
# heavy: B1 heavy with M50W
# scFv-Fc: not shown
# light: B1 light with Y94I
# notes: VH M50W, VL Y94I as printed; also called MESO-C H1.3_L1.17; copies: 1 + 1 + 1
# Molecular target: T1, cyno MSLN (Macaca fascicularis (cynomolgus))
# T1 construct: soluble antigen for Octet; also called cynomolgus MSLN
# Assay: Octet BLI; bsAb on anti-human Fc sensor, cyno MSLN as analyte, one concentration
Binder,Kd [nM],Response,koff [s⁻¹],kon [M⁻¹ s⁻¹]
B1,0.0938,0.737,5.74e-05,612000
B2,0.254,0.891,0.000146,576000
B3,1.66,1.1,0.000822,495000
B4,0.585,1.06,0.000337,575000
B5,0.414,1.03,0.00023,555000
B6,0.603,1.11,0.000342,566000
B7,0.395,1.07,0.000157,399000
B8,0.62,1.09,0.000321,518000
B9,0.7,1.11,0.000166,238000
B10,0.223,1.04,0.000128,575000
B11,1.2,0.948,0.000762,634000
B12,0.0297,0.849,2.01e-05,676000
B13,0.255,1,0.000151,592000
B14,0.163,0.941,0.0001,616000
B15,,0.0728,,
B16,0.189,0.867,0.000125,660000
B17,0.155,0.95,0.000105,676000

# Molecular target: T2, human MSLN antigen (human, UniProt Q13421 296-580, limits assumed)
# T2 construct: Soluble antigen for BLI; also called Mesothelin; MESO
# Assay: Octet BLI; bsAb on anti-human Fc sensor, human MSLN as analyte, several concentrations
# Source text: (§1) Variants of MESO-C were engineered by introducing point substitutions into the variable heavy region (VH) and the variable light region (VL) to generate 11 VH variants and 16 VL variants (sequences for which are depicted in FIG. 18 as H1.1-H1.13 and in FIG. 19 as L1.1-L1.18). An additional 4 VL variants were generated by combining useful point substitutions (sequences for which are depicted in FIG. 19 as L1.19-L1.22). WT and variant variable heavy regions were paired with WT and variant variable light regions to generate variant variable regions (Fvs) which were produced in the context of anti-MSLN×anti-CD3 bispecific antibodies. The bispecific antibodies were screened for MSLN binding affinity using Octet®, a BioLayer Interferometry (BLI)-based method. Experimental steps for Octet® generally include the following: Immobilization (capture of ligand to a biosensor); Association (dipping of ligand-coated biosensors into wells containing the analyte); and Dissociation (returning of biosensors to well containing buffer). In an initial screening, anti-human Fc sensors were used to capture the bispecific mAbs and dipped into human MSLN antigen (one concentration to screen large library). The resulting dissociation constant of illustrative variants (KD), association rate (kₐ), dissociation rate (kd), as well as sensorgram response are depicted in FIG. 20. In further screening of favorite variants identified in the initial screen (and combination variants), bispecific mAbs were dipped into multiple concentrations of human MSLN antigen, data for which are depicted in FIG. 21 (from various screens).
# T2 sequence (Q13421 other isoform, or with tags, fused parts or gaps limits assumed): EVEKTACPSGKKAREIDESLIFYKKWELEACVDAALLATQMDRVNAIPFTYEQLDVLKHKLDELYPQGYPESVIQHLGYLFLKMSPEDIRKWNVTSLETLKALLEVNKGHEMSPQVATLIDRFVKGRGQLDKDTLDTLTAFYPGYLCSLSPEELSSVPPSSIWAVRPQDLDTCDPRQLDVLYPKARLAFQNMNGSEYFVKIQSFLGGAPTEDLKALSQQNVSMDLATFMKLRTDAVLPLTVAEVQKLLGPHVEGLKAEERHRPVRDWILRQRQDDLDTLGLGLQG
Binder,Kd [nM],Response,koff [s⁻¹],kon [M⁻¹ s⁻¹],binding result
B18,16.2,0.169,0.0103,635000,
B19,90.4,0.202,0.0383,424000,
B20,246,0.136,0.0816,332000,
B21,,0.0022,,,no binding

# Molecular target: T2, human MSLN antigen
# Assay: Octet BLI; bsAb on anti-human Fc sensor, human MSLN as analyte, one concentration
# Design: Response: unit not given here
# Source text: as §1
Binder,Kd [nM],Response,koff [s⁻¹],kon [M⁻¹ s⁻¹]
B1,0.0805,0.86,4.69e-05,583000
B2,0.601,1.02,0.000314,522000
B3,1.6,1.19,0.000773,483000
B4,0.687,1.16,0.00037,539000
B5,0.483,1.13,0.000268,555000
B6,0.684,1.23,0.000375,549000
B7,0.469,1.18,0.000199,425000
B8,0.721,1.15,0.000374,519000
B9,0.795,1.17,0.000198,249000
B10,0.283,1.11,0.000161,569000
B11,0.633,1.03,0.000383,605000
B12,0.0861,0.952,5.68e-05,660000
B13,0.286,1.11,0.000169,590000
B14,0.18,1.05,0.000113,627000
B15,,0.107,,
B16,0.135,0.978,9.35e-05,693000
B17,0.103,0.981,7.35e-05,717000
